# B1: F1*; the commonest letter at each place (parent)
# chain: GAGACCGCAACTGAAAAGTTGTTATCACTTGTCGTAAGACACTTTGGATGGGTTGAAGTTCTGCACGTAGAAGCAAAAGGC
# Variants of: B1
# Experiment: fraction ligated after 30 min (ligated reads / total reads); higher = more ligase activity
# Settings: with F1*sub RNA substrate (template-directed ligation), 42 °C
# Method in brief: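 Oligo-pool templates underwent PCR amplification, T7 transcription and gel purification to yield ribozyme variants. Gel-separated ligated and unligated bands were converted to complementary DNA with barcoded primers and sequenced on a MiSeq, keeping core bases of quality ≥20. The ratio of ligated reads to total reads gave the fraction ligated for every variant.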
row,Variant,fraction ligated
1,A39G A41G,0.791
2,A39G A41T,0.796
3,A39G A48C,0.766
4,A39G A48G,0.814
5,A39G A48T,0.824
6,A39G A56C,0.787
7,A39G A56G,0.792
8,A39G A56T,0.781
9,A39G A57C,0.821
10,A39G A57G,0.823
11,A39G A57T,0.829
12,A39G C40A,0.839
13,A39G C40G,0.802
14,A39G C40T,0.844
15,A39G C42A,0.829
16,A39G C42G,0.834
17,A39G C42T,0.843
18,A39G G46A,0.843
19,A39G G46C,0.781
20,A39G G46T,0.783
21,A39G G47A,0.795
22,A39G G47C,0.343
23,A39G G47T,0.389
24,A39G G50A,0.671

row,Variant,fraction ligated
1,A39G G50C,0.507
2,A39G G50T,0.789
3,A39G G55A,0.844
4,A39G G55C,0.801
5,A39G G55T,0.819
6,A39G T43A,0.838
7,A39G T43C,0.814
8,A39G T43G,0.815
9,A39G T44A,0.816
10,A39G T44C,0.849
11,A39G T44G,0.836
12,A39G T45A,0.784
13,A39G T45C,0.792
14,A39G T45G,0.389
15,A39G T49A,0.805
16,A39G T49C,0.714
17,A39G T49G,0.791
18,A39T,0.833
19,A39T A41C,0.782
20,A39T A41G,0.769
21,A39T A41T,0.775
22,A39T A48C,0.633
23,A39T A48G,0.778
24,A39T A48T,0.541

row,Variant,fraction ligated
1,A39T A56C,0.761
2,A39T A56G,0.78
3,A39T A56T,0.807
4,A39T A57C,0.792
5,A39T A57G,0.869
6,A39T A57T,0.781
7,A39T C40A,0.818
8,A39T C40G,0.808
9,A39T C40T,0.809
10,A39T C42A,0.846
11,A39T C42G,0.817
12,A39T C42T,0.829
13,A39T G46A,0.805
14,A39T G46C,0.64
15,A39T G46T,0.771
16,A39T G47A,0.759
17,A39T G47C,0.229
18,A39T G47T,0.22
19,A39T G50A,0.239
20,A39T G50C,0.0837
21,A39T G50T,0.413
22,A39T G55A,0.786
23,A39T G55C,0.738
24,A39T G55T,0.804

row,Variant,fraction ligated
1,A39T T43A,0.829
2,A39T T43C,0.795
3,A39T T43G,0.772
4,A39T T44A,0.79
5,A39T T44C,0.821
6,A39T T44G,0.827
7,A39T T45A,0.744
8,A39T T45C,0.676
9,A39T T45G,0.1
10,A39T T49A,0.717
11,A39T T49C,0.0992
12,A39T T49G,0.769
13,C40A,0.833
14,C40A A41C,0.811
15,C40A A41G,0.766
16,C40A A41T,0.81
17,C40A A48C,0.658
18,C40A A48G,0.739
19,C40A A48T,0.0719
20,C40A A56C,0.711
21,C40A A56G,0.785
22,C40A A56T,0.812
23,C40A A57C,0.812
24,C40A A57G,0.843

row,Variant,fraction ligated
1,C40A A57T,0.792
2,C40A C42A,0.821
3,C40A C42G,0.803
4,C40A C42T,0.818
5,C40A G46A,0.819
6,C40A G46C,0.817
7,C40A G46T,0.792
8,C40A G47A,0.769
9,C40A G47C,0.25
10,C40A G47T,0.341
11,C40A G50A,0.212
12,C40A G50C,0.123
13,C40A G50T,0.488
14,C40A G55A,0.807
15,C40A G55C,0.504
16,C40A G55T,0.787
17,C40A T43A,0.856
18,C40A T43C,0.768
19,C40A T43G,0.801
20,C40A T44A,0.823
21,C40A T44C,0.794
22,C40A T44G,0.779
23,C40A T45A,0.66
24,C40A T45C,0.358

row,Variant,fraction ligated
1,C40A T45G,0.0271
2,C40A T49A,0.517
3,C40A T49C,0.116
4,C40A T49G,0.674
5,C40G,0.816
6,C40G A41C,0.784
7,C40G A41G,0.807
8,C40G A41T,0.768
9,C40G A48C,0.768
10,C40G A48G,0.786
11,C40G A48T,0.715
12,C40G A56C,0.784
13,C40G A56G,0.766
14,C40G A56T,0.805
15,C40G A57C,0.788
16,C40G A57G,0.8
17,C40G A57T,0.79
18,C40G C42A,0.82
19,C40G C42G,0.826
20,C40G C42T,0.8
21,C40G G46A,0.825
22,C40G G46C,0.801
23,C40G G46T,0.793
24,C40G G47A,0.783

row,Variant,fraction ligated
1,C40G G47C,0.147
2,C40G G47T,0.438
3,C40G G50A,0.262
4,C40G G50C,0.134
5,C40G G50T,0.548
6,C40G G55A,0.808
7,C40G G55C,0.659
8,C40G G55T,0.794
9,C40G T43A,0.817
10,C40G T43C,0.811
11,C40G T43G,0.819
12,C40G T44A,0.841
13,C40G T44C,0.775
14,C40G T44G,0.807
15,C40G T45A,0.688
16,C40G T45C,0.669
17,C40G T45G,0.0145
18,C40G T49A,0.683
19,C40G T49C,0.365
20,C40G T49G,0.763
21,C40T,0.833
22,C40T A41C,0.78
23,C40T A41G,0.765
24,C40T A41T,0.822

row,Variant,fraction ligated
1,C40T A48C,0.763
2,C40T A48G,0.784
3,C40T A48T,0.798
4,C40T A56C,0.773
5,C40T A56G,0.801
6,C40T A56T,0.799
7,C40T A57C,0.823
8,C40T A57G,0.839
9,C40T A57T,0.798
10,C40T C42A,0.845
11,C40T C42G,0.857
12,C40T C42T,0.853
13,C40T G46A,0.809
14,C40T G46C,0.79
15,C40T G46T,0.792
16,C40T G47A,0.798
17,C40T G47C,0.163
18,C40T G47T,0.197
19,C40T G50A,0.567
20,C40T G50C,0.357
21,C40T G50T,0.784
22,C40T G55A,0.841
23,C40T G55C,0.782
24,C40T G55T,0.816

row,Variant,fraction ligated
1,C40T T43A,0.819
2,C40T T43C,0.795
3,C40T T43G,0.782
4,C40T T44A,0.831
5,C40T T44C,0.829
6,C40T T44G,0.825
7,C40T T45A,0.791
8,C40T T45C,0.77
9,C40T T45G,0.195
10,C40T T49A,0.792
11,C40T T49C,0.38
12,C40T T49G,0.812
13,A41C,0.775
14,A41C A48C,0.571
15,A41C A48G,0.783
16,A41C A48T,0.736
17,A41C A56C,0.503
18,A41C A56G,0.561
19,A41C A56T,0.615
20,A41C A57C,0.767
21,A41C A57G,0.773
22,A41C A57T,0.785
23,A41C C42A,0.844
24,A41C C42G,0.826

row,Variant,fraction ligated
1,A41C C42T,0.812
2,A41C G46A,0.764
3,A41C G46C,0.639
4,A41C G46T,0.676
5,A41C G47A,0.228
6,A41C G47C,0.177
7,A41C G47T,0.157
8,A41C G50A,0.28
9,A41C G50C,0.168
10,A41C G50T,0.597
11,A41C G55A,0.804
12,A41C G55C,0.329
13,A41C G55T,0.751
14,A41C T43A,0.781
15,A41C T43C,0.766
16,A41C T43G,0.76
17,A41C T44A,0.764
18,A41C T44C,0.769
19,A41C T44G,0.797
20,A41C T45A,0.55
21,A41C T45C,0.328
22,A41C T45G,0.0888
23,A41C T49A,0.178
24,A41C T49C,0.17

row,Variant,fraction ligated
1,A41C T49G,0.209
2,A41G,0.802
3,A41G A48C,0.736
4,A41G A48G,0.76
5,A41G A48T,0.625
6,A41G A56C,0.755
7,A41G A56G,0.764
8,A41G A56T,0.756
9,A41G A57C,0.735
10,A41G A57G,0.787
11,A41G A57T,0.76
12,A41G C42A,0.85
13,A41G C42G,0.803
14,A41G C42T,0.83
15,A41G G46A,0.791
16,A41G G46C,0.768
17,A41G G46T,0.767
18,A41G G47A,0.734
19,A41G G47C,0.178
20,A41G G47T,0.354
21,A41G G50A,0.23
22,A41G G50C,0.119
23,A41G G50T,0.609
24,A41G G55A,0.785

row,Variant,fraction ligated
1,A41G G55C,0.663
2,A41G G55T,0.754
3,A41G T43A,0.817
4,A41G T43C,0.744
5,A41G T43G,0.807
6,A41G T44A,0.796
7,A41G T44C,0.76
8,A41G T44G,0.809
9,A41G T45A,0.482
10,A41G T45C,0.541
11,A41G T45G,0.119
12,A41G T49A,0.671
13,A41G T49C,0.564
14,A41G T49G,0.739
15,A41T,0.837
16,A41T A48C,0.73
17,A41T A48G,0.762
18,A41T A48T,0.345
19,A41T A56C,0.784
20,A41T A56G,0.778
21,A41T A56T,0.792
22,A41T A57C,0.787
23,A41T A57G,0.807
24,A41T A57T,0.808

row,Variant,fraction ligated
1,A41T C42A,0.849
2,A41T C42G,0.836
3,A41T C42T,0.848
4,A41T G46A,0.804
5,A41T G46C,0.792
6,A41T G46T,0.787
7,A41T G47A,0.783
8,A41T G47C,0.211
9,A41T G47T,0.418
10,A41T G50A,0.342
11,A41T G50C,0.268
12,A41T G50T,0.715
13,A41T G55A,0.809
14,A41T G55C,0.706
15,A41T G55T,0.81
16,A41T T43A,0.822
17,A41T T43C,0.773
18,A41T T43G,0.803
19,A41T T44A,0.815
20,A41T T44C,0.806
21,A41T T44G,0.8
22,A41T T45A,0.741
23,A41T T45C,0.428
24,A41T T45G,0.283

row,Variant,fraction ligated
1,A41T T49A,0.686
2,A41T T49C,0.658
3,A41T T49G,0.749
4,C42A,0.84
5,C42A A48C,0.761
6,C42A A48G,0.785
7,C42A A48T,0.803
8,C42A A56C,0.794
9,C42A A56G,0.781
10,C42A A56T,0.798
11,C42A A57C,0.797
12,C42A A57G,0.794
13,C42A A57T,0.848
14,C42A G46A,0.821
15,C42A G46C,0.811
16,C42A G46T,0.789
17,C42A G47A,0.832
18,C42A G47C,0.695
19,C42A G47T,0.704
20,C42A G50A,0.345
21,C42A G50C,0.239
22,C42A G50T,0.658
